Experimental data published in the supplement of paper PMC12042874.
± gives the uncertainty stated by the source.

Assay: amyloid nucleation score (Sup35N fusion, yeast selection) (log enrichment); library NNK3; higher = more nucleation; inactive = no reads after selection
How it was run: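 Libraries of peptides of 20 random codons fused to Sup35N were expressed in psi-negative yeast and induced 24 hours with 100 μM copper sulfate. Selection was 7 days at 30°C on medium lacking adenine and uracil, and plasmid inserts were Illumina-sequenced before and after selection. Nucleation score is the DiMSum log enrichment of output over input reads, centred on the mode score of non-aggregating sequences, and sequences with under 100 input reads were left out.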

HSSVDIQRFCIFYINQCVPK
amyloid nucleation score: 2.45 ± 0.072

HSWNKCDVYAWGLCTFISWC
amyloid nucleation score: 0.987 ± 0.096

HTCVD
amyloid nucleation score: inactive

HTIRL
amyloid nucleation score: inactive

HTLRWE
amyloid nucleation score: inactive

HTSPWVELPVGISRTCDEDR
amyloid nucleation score: inactive

HTTALIGANDSA
amyloid nucleation score: 0.024 ± 0.46

HTWSCCYFLS
amyloid nucleation score: 2.54 ± 0.063

HVAIPTGLSKSNSQLYS
amyloid nucleation score: inactive

HVFCHVPNPCLVGSMLTLGD
amyloid nucleation score: inactive

HVFSITLAVGTYLLTRLYSQ
amyloid nucleation score: 1.07 ± 0.1

HVPGRIWDVFTRLLNEVLTN
amyloid nucleation score: inactive

HVSQTWLGRGADSGHWPRQG
amyloid nucleation score: 0.325 ± 0.46

HVSVFMCLCTVDTR
amyloid nucleation score: 1.33 ± 0.078

HWTGVAELLAGYCV
amyloid nucleation score: inactive

HYGEFHKTNCARYRYFI
amyloid nucleation score: inactive

HYLYRNCNVAVTVRSLTV
amyloid nucleation score: inactive

HYSAFTRQSVSSKDTDT
amyloid nucleation score: -0.582 ± 0.76

HYTTASFDVDNPLRLLLLLQ
amyloid nucleation score: inactive

HYTVDANNIVFYILH
amyloid nucleation score: 3.11 ± 0.076

HYYNSHSWATTTT
amyloid nucleation score: inactive

IAFLAMHLFVASWFPR
amyloid nucleation score: inactive

IAHISLQNIVDVMGPNRSMY
amyloid nucleation score: 1.44 ± 0.14

IALIICEGLPRMRGSSGPVG
amyloid nucleation score: inactive

IALSLLKTAKIMY
amyloid nucleation score: inactive

IALSVDYLRFIFKNHSA
amyloid nucleation score: -0.464 ± 0.66

IALTWDSVIYSTYLGVNFLT
amyloid nucleation score: 0.627 ± 0.23

IANRKSGMKSTRKKESWH
amyloid nucleation score: inactive

IAVCHLFLQYLCSRSTFMTL
amyloid nucleation score: inactive

ICAMAYADRTFSTSKGSK
amyloid nucleation score: inactive

ICGNPLVLLMNNSVRLG
amyloid nucleation score: 0.092 ± 0.64

ICYTMST
amyloid nucleation score: inactive

IDCILVTGLHVDLLEWQKRQ
amyloid nucleation score: 2.03 ± 0.086

IDCLFRLAGYWSALWTFVLF
amyloid nucleation score: inactive

IDDQLCQ
amyloid nucleation score: inactive

IDFILWQFVMF
amyloid nucleation score: inactive

IDGWRGELVMTYN
amyloid nucleation score: 0.025 ± 0.48

IDLFRSFSLAVLVVYMSEDW
amyloid nucleation score: inactive

IDLNMQMELHGWHRVCWGCY
amyloid nucleation score: 0.657 ± 0.22

IDLVLFSTCVNALVVESFGG
amyloid nucleation score: inactive

IDTISMG
amyloid nucleation score: inactive

IDTWFISFRCMFSGNYMYFL
amyloid nucleation score: inactive

IDVLV
amyloid nucleation score: inactive

IDYAYGNVTNNPQKP
amyloid nucleation score: inactive

IEAMRNRWSFKY
amyloid nucleation score: inactive

IEFLFMYTWWAVLNSGSK
amyloid nucleation score: 0.999 ± 0.2

IEGSYIDMFLYSYLMSGSLI
amyloid nucleation score: inactive

IEGVGCIFRDLGDFLRGPWG
amyloid nucleation score: inactive

IEPIECTMA
amyloid nucleation score: inactive

IEQPY
amyloid nucleation score: inactive

IESIH
amyloid nucleation score: inactive

IESVRKHGGCTAFVSSWYVM
amyloid nucleation score: inactive

IETPSGLRKIELFMTCYYTS
amyloid nucleation score: 0.431 ± 0.41

IEWLI
amyloid nucleation score: inactive

IFACLHGAREVFLFQWLGFE
amyloid nucleation score: inactive

IFACVLHVVTW
amyloid nucleation score: inactive

IFCAKSIIGIPGTDPRCRPD
amyloid nucleation score: 1.5 ± 0.13

IFCYPQAQS
amyloid nucleation score: inactive

IFEVFSVNKV
amyloid nucleation score: inactive

IFHFAATHEWYIMYYIDGSP
amyloid nucleation score: inactive

IFHMVVLVLAGKFILVISCS
amyloid nucleation score: inactive

IFIAKLENTVSRLFTFCFIM
amyloid nucleation score: inactive

IFILTMSDWVFL
amyloid nucleation score: 1.91 ± 0.062

IFIQLLPYVFSTVEVSDFVG
amyloid nucleation score: 0.625 ± 0.38

IFNMSEYNKLECTLTLY
amyloid nucleation score: inactive

IFNNLTGFNNKGS
amyloid nucleation score: inactive

IFSYLEEECDPRWRGPLKPL
amyloid nucleation score: inactive

IFTHVVEEFS
amyloid nucleation score: inactive

IFVQAYLRGSEICALGDWRL
amyloid nucleation score: inactive

IFVRSLAQLGLIFDFHIFWE
amyloid nucleation score: inactive

IFVWGNNLTMSLSVFNNA
amyloid nucleation score: 2.58 ± 0.072

IFWSFTGT
amyloid nucleation score: inactive

IFWYEDKIYKMGWQFGGIAY
amyloid nucleation score: 1.1 ± 0.11

IFYFHQFNCMPGLAFTSVIG
amyloid nucleation score: inactive

IGDMSLLLTCGGWSLIQLQA
amyloid nucleation score: inactive

IGFAGSVM
amyloid nucleation score: inactive

IGHSTTYHKRQECSLVQWSS
amyloid nucleation score: inactive

IGLRLVATLIDLRNADIGYG
amyloid nucleation score: inactive

IGMMYVIGIYLIGGNYSIR
amyloid nucleation score: inactive

IGNFRGL
amyloid nucleation score: inactive
